Here are results for 1 molecule from patent US20100196266A1 (published 2010).

Assay [1] has as its target T1, human leukocyte antigen-DR (HLA-DR) on human lymphoma and leukemia cell lines and human lymphocytes (human). The experiment in a line: indirect FACS, FITC-GAH Fc, Ramos cells; none 3.1.
For assay [2], the target named is T1, human leukocyte antigen-DR (HLA-DR) on …. In words: indirect FACS, FITC-GAH Fc, Namalwa cells; none 2.5.
The target is the same in assay [3]. In words: indirect flow cytometry, FITC-GAH Fc, Ramos cells; none 3.1.
The target is the same in assay [4]. The experiment in a line: indirect flow cytometry, FITC-GAH Fc, Raji cells; none 6.9. In general terms: A flow cytometer gives signals particle by particle.
The target is the same in assay [5]. In words: indirect flow cytometry, FITC-GAH Fc, SU-DHL-6 cells; none 4.6.
Assay [6] shares this target. The experiment in a line: indirect flow cytometry, FITC-GAH Fc, RL cells; none 2.4.
The target is the same in assay [7]. In words: indirect flow cytometry, FITC-GAH Fc, Namalwa cells; none 2.6.
The target is the same in assay [8]. The experiment in a line: indirect flow cytometry, Namalwa cells, FITC-GAH; none 2.52.
Assay [9] has the same target. In words: indirect flow cytometry, FITC-GAH Fc, Daudi cells; none 3.2.
For assay [10] the target is unchanged. In words: indirect FACS, FITC-GAH Fc, WSU-FSCCL cells; none 2.6.
For assay [11] the target is unchanged. The experiment in a line: indirect FACS, FITC-GAH Fc, SU-DHL-6 cells; none 4.6.
Assay [12] shares this target. The experiment in a line: indirect FACS, FITC-GAH Fc, Daudi cells; none 3.1.
For assay [13] the target is unchanged. The experiment in a line: indirect FACS, FITC-GAH Fc, Raji cells; none 6.8.
The target is the same in assay [14]. The experiment in a line: indirect flow cytometry, FITC-GAH Fc, WSU-FSCCL cells; none 2.7.

B1: hL243γ4P (humanized L243, IgG4/K isotype with hinge mutation Ser241Pro) (antibody, V domains shown)
VH: QVQLQQSGSELKKPGASVKVSCKASGFTFTNYGMNWVKQAPGQGLKWMGWINTYTREPTYADDFKGRFAFSLDTSVSTAYLQISSLKADDTAVYFCARDITAVVPTGFDYWGQGSLVTVSS
VL: DIQLTQSPSSLSASVGDRVTITCRASENIYSNLAWYRQKPGKAPKLLVFAASNLADGVPSRFSGSGSGTDYTFTISSLQPEDIATYYCQHFWTTPWAFGGGTKLQIKR
notes: Same V domains as hL243; human γ4 constant region with Ser241Pro (Kabat numbering) in the hinge, human kappa; also called hL243 (IgG4 isotype)
In the case of B1, the “Geometric Mean Fluorescence” value in assay [1] was found to be 278; in [2], 261; in [3], 278; in [4], 972; in assay [5], 572; in [6], 112. In addition, the “Geometric Mean Fluorescence” value in assay [7] turned out to be 261; in assay [9], 937; in assay [10] it was 467; in assay [11] it was 572; in assay [12], 937; in assay [13], 972. Besides, in [14], the “Geometric Mean Fluorescence” value amounted to 467. Further, the “GEO MEAN Fluorescence” value in assay [8] is 324.
